Reference: publication PMC10988774 (Journal of molecular biology, 2023)

Target: T1, p65 La module, LaMod(108–355) (Tetrahymena thermophila, UniProt W7X6T2 108-355)
T1 sequence (looked up): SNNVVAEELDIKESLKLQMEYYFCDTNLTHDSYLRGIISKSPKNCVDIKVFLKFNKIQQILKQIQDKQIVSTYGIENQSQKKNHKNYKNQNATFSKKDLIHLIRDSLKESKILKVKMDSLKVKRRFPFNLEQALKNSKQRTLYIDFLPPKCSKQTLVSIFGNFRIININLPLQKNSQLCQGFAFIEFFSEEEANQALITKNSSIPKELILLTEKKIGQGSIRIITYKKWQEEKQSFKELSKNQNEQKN
Experiment: NMR titration

- binding result: binds
B1: p65 N-terminal domain, NTD (residues 1–109) (domain or fragment, Tetrahymena thermophila, UniProt W7X6T2 1-109, looked up)
chain: MDEYLENTNLEELEQECFMEDYQHEDVVEQENHQVDANDIYENQQMNDESQLNQDVKISQQKEQAVEMIEEQQQNNQDKFKQFQDCMAHITELNFKRNYQNLTEQSSSN
